Laboratory results taken from patent publication US20070117966A1.

Target: purified αvβ3 integrin (human) (UniProt P06756)
Experiment: competition ELISA on αvβ3 coated wells; competitor: biotinylated FNfn10-3JCLI4 at 800 pM; no inhibition at the highest concentration

- IC50: > 80 nM
Substance: wild-type FNfn10 (FNfn10-WT), purified protein (from UniProt P02751 1538-1631)
